± gives the standard deviation of the averaged measurements.
Tested on: ATP
Assay: switch fluorescence ratio, 500 uM ATP over buffer (Cy3 cluster intensity, sum of 5 cycles each) (fold (ratio)); higher = stronger signal-on switching upon ATP binding; sequences stand for … in TCGTCGGCAGCGTCAGATGTGTATAAGAGACAGTTTTTTTTTTTTTTTTTTTTTTTTT…TC
Conditions: aptamer strand: ATP DNA aptamer (quencher-CACCTGGGGGAGTATTGCGGAGGAAGG + anchor), 100 nM annealed; ATP concentration: 500 uM
In short: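 Exposure to 500 uM ATP lasted 15 min at 22 °C before imaging, and a selection-buffer image was taken beforehand, for Cy3-labelled switching-strand clusters on a modified Illumina MiSeq flow-cell annealed to 100 nM quencher-labelled ATP aptamer. Five buffer/ATP cycles were run with NaOH stripping and re-annealing between them. The fluorescence ratio per cluster is summed target-cycle over summed buffer-cycle Cy3 intensity, averaged per switch-domain sequence. Clusters outside 100-1000 RFU were excluded.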

Row | Sequence | switch fluorescence ratio
1 | TAATGGAAAA | 1.15 ± 0.28
2 | TAATGGAGTT | 1 ± 0.029
3 | TAATGGGGCC | 1.057 ± 0.005
4 | TAATGGGGGT | 0.994 ± 0.025
5 | TAATGGGTTT | 0.999 ± 0.062
6 | TAATGGTCGG | 0.985 ± 0.053
7 | TAATGGTT | 0.979 ± 0.011
8 | TAATGTATGT | 0.977 ± 0.018
9 | TAATGTATTA | 1.01 ± 0.027
10 | TAATGTGTAA | 0.9944 ± 0.0052
11 | TAATGTTATT | 0.987 ± 0.017
12 | TAATTAATGG | 1 ± 0.031
13 | TAATTACCTC | 1.04 ± 0.013
14 | TAATTAGTGG | 0.9832 ± 0.0051
15 | TAATTAGTGT | 0.979 ± 0.013
16 | TAATTATGTG | 0.986 ± 0.024
17 | TAATTCAGGG | 1.03 ± 0.032
18 | TAATTCATCG | 0.97196 ± 0.00069
19 | TAATTCTTGG | 0.972 ± 0.046
20 | TAATTGATGT | 1.01 ± 0.06
21 | TAATTGGACG | 1.12 ± 0.062
22 | TAATTGGATG | 0.992 ± 0.027
23 | TAATTGGCAA | 1.004 ± 0.0017
24 | TAATTGGGAA | 0.997 ± 0.035
25 | TAATTGGGGT | 0.994 ± 0.018
26 | TAATTGGTGG | 1.01 ± 0.029

Row | Sequence | switch fluorescence ratio
27 | TAATTGTGCT | 0.979 ± 0.026
28 | TAATTGTTGT | 1.003 ± 0.005
29 | TAATTTATAC | 1.053 ± 0.0054
30 | TAATTTCTAC | 1.005 ± 0.0054
31 | TAATTTCTTA | 0.996 ± 0.014
32 | TAATTTCTTG | 1.013 ± 0.0018
33 | TAATTTGCGT | 1 ± 0.019
34 | TAATTTGTGC | 1.01 ± 0.044
35 | TAATTTGTGG | 0.995 ± 0.023
36 | TAATTTTAGG | 0.996 ± 0.012
37 | TAATTTTCCG | 1.02 ± 0.043
38 | TAATTTTTAA | 0.99 ± 0.029
39 | TACAAAGAGT | 1.04 ± 0.025
40 | TACAAGAAGG | 1.015 ± 0.0066
41 | TACAATTTTG | 1.013 ± 0.0017
42 | TACACCGTCA | 1.08 ± 0.023
43 | TACAGAGTTT | 0.977 ± 0.015
44 | TACAGCTGCG | 1.007 ± 0.0015
45 | TACAGCTGTG | 0.9865 ± 0.0083
46 | TACAGTTGGC | 1.03 ± 0.084
47 | TACATACTCT | 1.29 ± 0.023
48 | TACATAGGTT | 1.048 ± 0.006
49 | TACATGGGTG | 1.01 ± 0.054
50 | TACATGTGCT | 0.996 ± 0.035
51 | TACATTGACG | 1.025 ± 0.0089
52 | TACCAAAGGT | 1.02 ± 0.031

Row | Sequence | switch fluorescence ratio
53 | TACCAAGGGA | 0.991 ± 0.00097
54 | TACCACGTTG | 1 ± 0.009
55 | TACCAGCCGA | 1.06 ± 0.043
56 | TACCATGGCG | 0.9983 ± 0.0058
57 | TACCCAAAAT | 1.1 ± 0.15
58 | TACCCAGATT | 1.66 ± 0.98
59 | TACCCATTAC | 1.72 ± 0.041
60 | TACCCGGACA | 1.091 ± 0.0053
61 | TACCGGGCAC | 1.11 ± 0.03
62 | TACCGTATTT | 1.04 ± 0.027
63 | TACCTAGAAC | 1.07 ± 0.056
64 | TACCTGAAAA | 0.985 ± 0.022
65 | TACCTGCAGC | 1.12 ± 0.064
66 | TACCTGCCGG | 1.08 ± 0.026
67 | TACCTTGAGC | 0.9999 ± 0.0034
68 | TACGAAATGT | 1.041 ± 0.0098
69 | TACGAACTAT | 1.33 ± 0.052
70 | TACGAATAGA | 1.056 ± 0.0097
71 | TACGAATATT | 1.025 ± 0.0046
72 | TACGACGGGC | 1.57 ± 0.5
73 | TACGAGCCAC | 1.31 ± 0.032
74 | TACGAGCCGC | 0.989 ± 0.057
75 | TACGAGGTTG | 1 ± 0.02
76 | TACGAGTCGT | 1.01 ± 0.022
77 | TACGATGACT | 1.19 ± 0.11
78 | TACGATGAGT | 0.996 ± 0.02

Row | Sequence | switch fluorescence ratio
79 | TACGATGGTA | 0.9792 ± 0.0049
80 | TACGCCGGAA | 1.33 ± 0.37
81 | TACGCTGCAG | 1.05 ± 0.049
82 | TACGGCCGAG | 1 ± 0.0029
83 | TACGGCGGGG | 1.02 ± 0.047
84 | TACGGGATGG | 0.989 ± 0.029
85 | TACGGGCGGA | 1.02 ± 0.034
86 | TACGGGGGAT | 1.02 ± 0.054
87 | TACGGGTATA | 1.01 ± 0.025
88 | TACGGTGGGT | 0.982 ± 0.032
89 | TACGTACGTT | 1.41 ± 0.062
90 | TACGTAGGCA | 1.073 ± 0.0077
91 | TACGTGCATA | 1.122 ± 0.0033
92 | TACGTGGCTG | 1.05 ± 0.073
93 | TACGTGGTAG | 1.06 ± 0.05
94 | TACGTTGAGC | 1.02 ± 0.02
95 | TACTAACCTT | 1.43 ± 0.18
96 | TACTAATGTT | 1.03 ± 0.044
97 | TACTAGGCTG | 0.992 ± 0.081
98 | TACTATATGG | 1.03 ± 0.011
99 | TACTATGTGG | 1.013 ± 0.0014
100 | TACTCCGTTT | 2.15 ± 0.34
101 | TACTCGAGTT | 0.977 ± 0.015
102 | TACTCGCCGT | 1.053 ± 0.0064
103 | TACTCGGGGT | 1.004 ± 0.0064
104 | TACTCTGGTG | 1.43 ± 0.019

Row | Sequence | switch fluorescence ratio
105 | TACTGACGGT | 1.4 ± 0.032
106 | TACTGCTCTA | 1.022 ± 0.01
107 | TACTGTATTG | 1.03 ± 0.13
108 | TACTGTGGGT | 0.9726 ± 0.0035
109 | TACTGTGTCT | 0.98144 ± 0.00053
110 | TACTTAATGT | 1.032 ± 0.0033
111 | TACTTACTAA | 1.19 ± 0.036
112 | TACTTAGCCC | 1.07 ± 0.022
113 | TACTTGAGTA | 1.0026 ± 0.00022
114 | TACTTGATCT | 1.001 ± 0.0033
115 | TACTTGGGAG | 1.027 ± 0.0036
116 | TACTTGTTTT | 1 ± 0.033
117 | TACTTTCGTA | 0.983 ± 0.011
118 | TACTTTGCTC | 1.03 ± 0.016
119 | TACTTTGGTT | 0.975 ± 0.038
120 | TAGAAAAAGC | 0.9717 ± 0.0093
121 | TAGAAACGAG | 1.02 ± 0.087
122 | TAGAAAGTGC | 1.02 ± 0.099
123 | TAGAAATACT | 1.54 ± 0.2
124 | TAGAAATGGT | 0.994 ± 0.041
125 | TAGAACTGGG | 1.05 ± 0.037
126 | TAGAAGGAAA | 0.9997 ± 0.0017
127 | TAGAAGGAAT | 1.05 ± 0.044
128 | TAGAAGTGCG | 1.01 ± 0.041
129 | TAGAATGGC | 1.01 ± 0.054
130 | TAGAATGGCT | 0.9907 ± 0.0057

Row | Sequence | switch fluorescence ratio
131 | TAGAATGTT | 1.01 ± 0.015
132 | TAGAATTACT | 1.05 ± 0.056
133 | TAGAATTCTT | 0.997 ± 0.078
134 | TAGAATTTTT | 0.998 ± 0.017
135 | TAGACAGGGG | 1 ± 0.037
136 | TAGACGAAAA | 1.03 ± 0.024
137 | TAGACGGATT | 1.04 ± 0.066
138 | TAGACTCGGT | 0.993 ± 0.053
139 | TAGACTGGGG | 0.966 ± 0.11
140 | TAGACTGGTG | 1.01 ± 0.017
141 | TAGACTTGTT | 0.996 ± 0.02
142 | TAGAGAGGGA | 1.04 ± 0.096
143 | TAGAGAGGGT | 0.995 ± 0.035
144 | TAGAGATTTT | 1 ± 0.046
145 | TAGAGGAGTT | 0.951 ± 0.051
146 | TAGAGGATCA | 1 ± 0.056
147 | TAGAGGGAGG | 0.967 ± 0.014
148 | TAGAGGGCAG | 1.03 ± 0.023
149 | TAGAGGGGGG | 0.985 ± 0.038
150 | TAGAGGTGTG | 0.99 ± 0.019
151 | TAGAGTTGGG | 0.986 ± 0.015
152 | TAGATAGAGG | 0.961 ± 0.016
153 | TAGATATTGG | 1.01 ± 0.016

Reference: the supplement of paper PMC10126150
